From article doi:10.1101/2022.11.09.515846 (bioRxiv, 2022)

Target: T1, human Ndc80 loop segment (residues 370–509) with a cysteine added at each end (human, UniProt O14777 370-509)
T1 chain: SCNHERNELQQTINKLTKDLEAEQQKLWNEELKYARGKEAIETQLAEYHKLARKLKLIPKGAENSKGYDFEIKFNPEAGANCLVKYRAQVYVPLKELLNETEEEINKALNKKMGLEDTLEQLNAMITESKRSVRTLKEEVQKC
Assay: crystal structure

B1: human Nuf2 segment (residues 252–347) with a cysteine added at each end (domain or fragment)
chain: CKNYKEKMKDTVQKLKNARQEVVEKYEIYGDSVDCLPSCQLEVQLYQKKIQDLSDNREKLASILKESLNLEDQIESDESELKKLKTEENSFKRLMIVC
binding result: binds
